Patent publication US9505841B2, “Use of an anti-Ang2 antibody” (Samsung Electronics Co., Ltd., priority 2013, dated 2016)

Tests used:
[1] = system: blood vessels in tumor tissues; assay: Immunofluorescence of blood vessels (CD31) and pericytes (PDGFR-β) in LLC tumors; type: in vivo, mouse; conditions: LLC tumors of Example 14; compared to Fc- or 4H10-treated tumors
Text: To examine changes in blood vessels in tumor tissues after treated with antibody, frozen sections were obtained and subjected to immunofluorescence staining using a blood vessel specific marker, CD31 and a pericyte specific marker, PDGFR-β.
In particular, the tumor tissues obtained from Example 14 were frozen using OCT compound (Sakura Finetek), and frozen sections were obtained therefrom using cryostat (Leica). The obtained tumor frozen sections were blocked with 0.3% TBST (TBS mixed with 0.3% Triton X-100) buffer supplemented with 5% goat serum (Jackson Immunoresearch) for one hour. To the blocking buffer, hamster anti-CD31 antibody (1:200, Millipore) and rat anti-PDGF receptor beta antibody (1:200, eBioscience) were added, and the frozen sections were added thereto to be allowed to react for 3 hours. the reacted product was washed with TBS three times, and then, the blocking buffer mixed with cy3-conjugated anti-hamster IgG antibody and FITC-conjugated anti-rat IgG antibody (1:1,000, Jackson Immunoresearch) was added the frozen sections to be allowed to react for 2 hours. After washing with TBS three times, the frozen sections were covered with coverslip (Marenfield) using Fluorescence mounting medium (DAKO). The stained tumor frozen sections were observed using LSM5 (Zeiss) confocal microscope. […]

[2] = system: metastasis of lung cancer cells to near lymph nodes; assay: LLC tumor metastasis to inguinal lymph nodes; type: in vivo, mouse; conditions: 10 mg/kg i.p., five administrations, compared to Fc- or 4H10-treated group
Experimental: To see the degree of tumor metastasis to near lymph nodes when treated with antibody 10D6, referring to the method of Example 14, LLC tumor cells were subcutaneously injected into mice. When the size of tumors reached 50˜100 mm^3, anti-Ang2 antibody 10D6 was injected at the concentration of 10 mg/kg via an intraperitoneal injection three times a week and the size of the tumors was measured. After administering the antibody five-times, inguinal lymph nodes were separated, and the obtained tissue sections were immunostained using rabbit anti-LYVE-1 antibody (1:200, Millipore) and mouse pan-Cytokeratin antibody (1;200, Abcam).
For comparison, the same experiment was performed to a control group treated with Fc of IgG1 and a comparative group treated with antibody 4H10 (refer to Example 3).

Ang2:Tie2 receptor = molecular target: T1, Ang2:Tie2 receptor (Homo sapiens, UniProt O15123); assay: ELISA for formation of 10D6-Ang2-Tie2 complex; type: binding; conditions: Tie2-Fc coated; 0.25 ug/ml Ang2, 2 ug/ml antibody
T1 construct: purchased R&D systems (Tie2-Fc)
Experimental: A 96-well MaxiSorp™ flat-bottom plate (Nunc) was coated with 4 ug/ml of Tie2-Fc (R&D systems) or BSA (Sigma). Then, the plate was washed five times with 0.05% (v/v) Tween-20-containing PBS (Phosphate Buffer Saline) and blocked with 1% (v/v) BSA (Bovine serum albumin; Sigma)-containing PBS at a room temperature for 2 hours. 0.25ug/ml of Ang2 and 2ug/ml of antibody 10D6 were added to each well of the plate, which was allowed to react at a room temperature for 2 hours and then washed five times with PBST. After that, an anti-mouse IgG antibody (Sigma) conjugated with HRP diluted in 1% (v/v) BSA-containing PBS at a ratio of 1:5,000 (v/v) was added in an amount of 100 ul to each well to react at a room temperature for 1 hour and then, the plate was washed five times with PBST. Lastly, 100 ul (microliter) of TMB substrate (Cell Signaling) was added to each well of the plate to induce color development for 3 min. and then, the reaction was ceased by the addition of 100 ul of Stop solution (Cell Signaling) and OD450 values were measured on a plate reader (Molecular Devices).

tumor blood vessels = assay: Lectin perfusion assay in LLC tumors; type: in vivo, mouse; conditions: 10 mg/kg i.p., five administrations, compared to Fc- or 4H10-treated group
Experimental: To see the functions of tumor blood vessels treated with antibody 10D6, perfusion level of the blood vessel was examined by Lectin perfusion assay. Referring to the method described in Example 14, LLC tumor cells were subcutaneously injected into mice. When the size of tumors reached 50˜100 mm^3, anti-Ang2 antibody 10D6 was injected at the concentration of 10 mg/kg via an intraperitoneal injection three times a week and the size of the tumors was measured. For comparison, the same experiment was performed to a control group treated with Fc of IgG1 and a comparative group treated with antibody 4H10 (refer to Example 3).
After administering the antibody five-times, the mice were injected with FITC-Lectin (Vector laboratory) via tail vein, and after 20 minutes, subjected to perfusion fixation. Tumor frozen sections were obtained and immunostained using hamster anti-CD31 antibody (1:200, Millipore). Images were obtained using LSM5 confocal microscope (Zeiss), and Lectin+ area/CD31+ area was quantified using ImageJ software (http://rsb.info.nih.gov/ij).

T1 sequence (O15123 19-496): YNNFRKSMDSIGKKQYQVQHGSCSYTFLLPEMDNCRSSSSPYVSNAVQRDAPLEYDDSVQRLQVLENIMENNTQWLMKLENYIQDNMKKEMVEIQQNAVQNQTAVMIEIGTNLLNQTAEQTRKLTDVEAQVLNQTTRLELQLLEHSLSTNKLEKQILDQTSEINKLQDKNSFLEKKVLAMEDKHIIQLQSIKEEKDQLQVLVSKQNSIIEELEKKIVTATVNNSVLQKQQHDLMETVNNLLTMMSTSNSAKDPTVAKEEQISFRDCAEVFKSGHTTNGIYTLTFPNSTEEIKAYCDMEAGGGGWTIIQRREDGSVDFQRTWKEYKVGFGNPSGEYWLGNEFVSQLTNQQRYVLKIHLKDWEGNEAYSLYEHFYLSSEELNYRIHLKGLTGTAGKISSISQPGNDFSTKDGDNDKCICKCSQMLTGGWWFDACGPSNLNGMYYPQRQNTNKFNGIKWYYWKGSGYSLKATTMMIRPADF
T1 sequence (Q02763 23-745 partner limits assumed): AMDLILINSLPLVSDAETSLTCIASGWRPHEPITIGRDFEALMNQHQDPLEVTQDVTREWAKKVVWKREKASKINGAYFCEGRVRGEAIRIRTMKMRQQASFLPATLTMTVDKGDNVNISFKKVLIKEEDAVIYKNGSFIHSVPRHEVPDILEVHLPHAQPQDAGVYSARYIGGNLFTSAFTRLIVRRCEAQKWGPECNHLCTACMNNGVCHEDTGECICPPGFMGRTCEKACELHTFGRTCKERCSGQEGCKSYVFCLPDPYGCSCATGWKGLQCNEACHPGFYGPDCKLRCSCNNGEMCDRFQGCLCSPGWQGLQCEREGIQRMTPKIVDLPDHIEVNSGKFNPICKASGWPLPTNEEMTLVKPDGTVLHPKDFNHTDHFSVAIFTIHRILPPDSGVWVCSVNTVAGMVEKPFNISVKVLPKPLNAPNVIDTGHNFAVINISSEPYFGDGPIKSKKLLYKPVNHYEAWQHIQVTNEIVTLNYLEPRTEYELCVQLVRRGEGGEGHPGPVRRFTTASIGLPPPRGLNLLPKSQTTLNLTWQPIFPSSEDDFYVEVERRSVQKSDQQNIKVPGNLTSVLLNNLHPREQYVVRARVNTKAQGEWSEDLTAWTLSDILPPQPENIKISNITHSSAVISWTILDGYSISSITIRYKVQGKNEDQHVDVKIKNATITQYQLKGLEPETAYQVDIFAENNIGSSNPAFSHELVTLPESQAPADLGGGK

B1: 10D6: mouse anti-Ang2 monoclonal antibody from hybridoma KCLRF-BP-00295; heavy chain variable region SEQ ID NO: 7, light chain variable region SEQ ID NO: 9 (antibody, V domains shown)
VH: DVQLQESGPGLVKPSQSLSLTCTVTGYSITSDYAWNWIRQFPGNKLEWMGYINYSGNTDYNPSLKSRSSITRDTSKNQFFLQLNSVTTGDTATYYCARGNFEGAMDYWGQGTSVTVSS
VL: SIVMTQTPKFLLVSAGDRVTITCKASQSVSNDVAWYQQKPGQSPKLLIYYASNRYPGVPDRFTGSGYGTDFTFTISTVQAEDLAVYFCQQDYSSPWTFGGGTKLEIK
modifications: Synthetic (Heavy chain variable region of an anti-Ang2 antibody); Synthetic (Light chain variable region of anti-Ang2 antibody)
blood vessel density and vascular normalization in tumor [1]: decreases the density of blood vessels in tumor and induces vascular normalization | number of metastatic lung cancer in lymph nodes [2]: decreased | size of lymph nodes [2]: decreased | formation of complex with Ang2 bound to Tie2 (Ang2:Tie2 receptor): formed a complex | percentage of Lectin+ area in CD31+ area (tumor blood vessels): increased | perfusion function of tumor blood vessels (tumor blood vessels): enhanced
